Data from paper PMC11739564, “Structure and function of a β-1,2-galactosidase from Bacteroides xylanisolvens, an intestinal bacterium” (Communications Biology, 2025).

How the values were obtained:
[1] = target: Bxy_22780 (GH35 β-1,2-galactosidase from Bacteroides xylanisolvens), wild type (Bacteroides xylanisolvens); test: crystal structure; WT enzyme co-crystallised with 20 mM galactose or MeβGal; reservoir 0.35 M potassium thiocyanate, 12% PEG 3350; 20 °C; oligomeric state from PISA server analysis of the crystal structures
[2] = target: Bxy_22780 E350G mutant (nucleophile mutant) (Bacteroides xylanisolvens); test: crystal structure; E350G mutant, ligand-free; 10–11 mg/ml in 50 mM MOPS (pH 7.5), 300 mM NaCl; reservoir 0.2 M sodium citrate tribasic dihydrate, 20% PEG 3350, 100 mM bis–Tris propane (pH 7.5); 20 °C; oligomeric state from PISA server analysis of the crystal structure
purified protein = substrate: O=[N+]([O-])c1ccc(O[C@@H]2O[C@H](CO)[C@H](O)[C@H](O)[C@H]2O)cc1; test: purified protein; conditions: hydrolysis, kinetic assays at pH 7.5, 30 °C
[3] = substrate: C[C@H]1O[C@@H](Oc2ccc([N+](=O)[O-])cc2)[C@H](O)[C@@H](O)[C@H]1O; test: hydrolysis kinetics (read-out for this constant not clearly told); assay type: biochemical, Bacteroides xylanisolvens; conditions: kinetic assays at pH 7.5, 30 °C
From the text: hydrolysis kinetics (read-out for this constant not clearly told) on Bxy_22780

“Bxy_22780 (GH35 β-1,2-galactosidase from Bacteroides xylanisolvens), wild type (enzyme)” gave a stoichiometry N [1] of 4.

With “Bxy_22780 E350G mutant (nucleophile mutant) (enzyme)” the stoichiometry N [2] was 4.

B1: Bxy_22780 (Bacteroides xylanisolvens XB1A) (protein)
chain: RPPMYTSTNTEVPSRLVKNEHGSWQLIVNGKPFIMLAGELHNSSASTTEYLNSLWTSLKTLNLNTVLAPIAWEQFEPQEGIFDYTLINNMIDGARKNGFKLSILWFGSWKNGESSYAPTWVKEDTKRFFRVKSVEGKEIETISPFCENAMKADAKAFKTLVEHIKKVDQATGTVIALQPENEVGIFQGMDYSKASLAAYEQEVPQALIQYMKKNRKNLRKELLSVWEENGARTSGAWKTVFGDNAWSKSFYTTWQYATYIDFISAGAKEIYPLPTFCNCWLVQKPDDMPGVYPNGGPVSRVMDIWKAAAPHIDVLAPDIYLSDFKNIVADYHRADNPLLIPEAVMKPANAFWAFGEHSALCYSPFGIEDGADNFVFAQSYKVLNELIPLISEHQGSDRMIGVMKMPGESERTVTMGDYQLCIKYDAEDAYGLIIQTGKNEFVVAGINFKVYFTSTDKKKTGYIKQVWEGGYDTDGEWKATRLLNGDETYHNAVLIAKGRRTFTSEKSNNYNADHSDEIFVYSPTSYQAVWSPGIYRVTTYLR
notes: N-terminal signal peptide (22 residues, counted with the 14 upstream residues) removed; C-terminal His6-tag (pET30a), E. coli BL21(DE3); homotetramer, D494 of a neighbouring subunit contacts subsite -1
B1 showed a Km (purified protein) of 3.49 ± 0.53 mM, a Vmax (purified protein) of 21.2 µmol/min/mg and a Vmax/Km (purified protein) of 6080 µL/min/mg. It also gave a Km [3] of 7.95 ± 0.46 mM, a Vmax [3] of 14 µmol/min/mg and a Vmax/Km [3] of 1760 µL/min/mg.
